Measurements reported in patent US7629323B2, “Manipulation of neuronal ion channels” (Northwestern University, priority 2003, dated 2009).

Legend:
[1] = molecular target: T1, Kv3.4a/Kv3.1b heteromeric channels (Rattus norvegicus, UniProt P25122+Q63734); assay type: cell-based; details: HEK293 cells, n=4
T1 construct: expressed in transfected cells; host or cells: HEK293
T1 sequence (Q63734 1-625): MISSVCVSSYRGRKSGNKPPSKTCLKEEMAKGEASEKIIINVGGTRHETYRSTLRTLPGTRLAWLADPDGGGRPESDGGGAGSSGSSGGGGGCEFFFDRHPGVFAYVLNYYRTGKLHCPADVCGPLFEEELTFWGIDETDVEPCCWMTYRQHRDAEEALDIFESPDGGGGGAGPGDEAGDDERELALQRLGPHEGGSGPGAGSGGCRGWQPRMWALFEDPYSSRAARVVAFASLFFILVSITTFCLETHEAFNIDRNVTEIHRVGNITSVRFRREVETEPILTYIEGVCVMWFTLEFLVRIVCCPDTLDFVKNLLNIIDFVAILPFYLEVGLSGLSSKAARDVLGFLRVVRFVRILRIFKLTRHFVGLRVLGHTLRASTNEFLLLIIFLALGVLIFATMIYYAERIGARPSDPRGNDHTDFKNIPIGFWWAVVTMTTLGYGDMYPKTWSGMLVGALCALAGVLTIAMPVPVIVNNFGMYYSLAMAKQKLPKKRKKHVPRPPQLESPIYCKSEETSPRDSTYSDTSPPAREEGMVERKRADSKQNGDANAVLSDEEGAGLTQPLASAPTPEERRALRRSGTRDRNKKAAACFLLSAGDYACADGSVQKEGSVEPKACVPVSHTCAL
T1 sequence (P25122 1-585): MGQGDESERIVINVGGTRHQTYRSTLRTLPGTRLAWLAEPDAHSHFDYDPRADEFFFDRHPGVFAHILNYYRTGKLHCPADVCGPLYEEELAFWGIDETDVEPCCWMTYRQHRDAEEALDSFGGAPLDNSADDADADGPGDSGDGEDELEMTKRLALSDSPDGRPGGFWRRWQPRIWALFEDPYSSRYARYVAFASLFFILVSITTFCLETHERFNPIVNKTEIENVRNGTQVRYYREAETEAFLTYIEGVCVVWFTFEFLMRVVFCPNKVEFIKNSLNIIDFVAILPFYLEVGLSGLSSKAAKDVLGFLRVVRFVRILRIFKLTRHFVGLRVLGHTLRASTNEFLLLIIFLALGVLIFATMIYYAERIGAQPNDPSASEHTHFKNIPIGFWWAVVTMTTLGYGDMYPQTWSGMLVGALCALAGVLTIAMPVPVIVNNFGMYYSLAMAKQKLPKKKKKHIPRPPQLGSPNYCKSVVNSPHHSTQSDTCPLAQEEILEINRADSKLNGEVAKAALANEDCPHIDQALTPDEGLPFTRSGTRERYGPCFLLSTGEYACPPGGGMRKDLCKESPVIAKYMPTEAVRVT
Excerpt: Electrophysiology. Whole-cell recordings used standard techniques^27,28. The internal solution consisted of (in mM): 30-90 K2SO4, 0-60 N-methyl-D-glucamine, 2 MgCl2, 40 HEPES, 5 EGTA, 12 phosphocreatine, 2 Na2ATP, 0.2 Na3GTP, and 0.1 leupeptin, pH 7.2 with H2SO4 (osmolarity 260-270 mOsm/l). The external solution consisted of (in mM): 140 Na-isethionate, 2 KCl, 4 MgCl2, 10 HEPES, 12 glucose and 0.001 TTX, pH 7.35 with NaOH (osmolarity 295-305 mOsm/l). The internal solution for current clamp recordings consisted of (in mM) 110 potassium methylsulphate, 2 MgCl2, 40 HEPES, 5 EGTA, 12 phosphocreatine, 2 Na2ATP, 0.2 Na3GTP, and 0.1 leupeptin, pH 7.2 with H2SO4 (osmolarity 260-270 mOsm/l). In the case of current clamp recordings, TTX was omitted from external solution. For the recordings in the presence of Ca^+2 ions EGTA was omitted from internal solution and 4 mM of MgCl2 was substituted by 2 mM of CaCl2 and 2 mM of MgCl2. […] Recordings were obtained with Axon Instruments 200 patch-clamp amplifier and controlled and monitored with a PC running pClamp software (version 7.0) (Axon Instruments Inc., Union City, Calif.). […] After seal rupture, series resistance (2-10 MΩ) was compensated (75-90%) and periodically monitored. […]
Single cell RT-PCR (scRT-PCR). […] In the case of co-transfection with Kv3.4a and Kv3.1b cDNA, single cell RT-PCR was used to confirm the presence of both mRNAs in the recorded cell. […]

Kv3.1 channel = molecular target: T2, Kv3.1 channel (Rattus norvegicus, UniProt P25122); details: low micromolar concentrations; cited from earlier work
T2 sequence (P25122 1-585): T1 sequence (P25122 1-585)

[2] = tested on: Inward rectifier K+ channels; details: cited from earlier work

In the case of “BDS-I (AAPCFCSGKPGRGDLWILRGTCPGGYGYTSNCYKWPNICCYPH)”, the “block of Kv3.4a/Kv3.1b heteromeric channels” value [1] is listed as “strong at the beginning of a depolarizing step and then waned with maintained depolarization”, the “effects on Kv3.1 channel currents” value (Kv3.1 channel) is listed as “only minor effects” and the “sensitivity of inward rectifier K+ channels” value [2] is listed as “insensitive”.
